According to publication PMC5473807, “Distribution and kinetics of the Kv1.3-blocking peptide HsTX1[R14A] in experimental rats” (Scientific Reports, 2017):
Read-outs that look alike come from different tables or passages of the source.

Test: In vivo biodistribution by organ and tissue extraction
Design: species or system male Wistar rats
Conditions: for tissue uptake dose at 4 h / SUV at 24 h / tissue uptake dose at 24 h / SUV at 48 h / tissue uptake dose at 48 h / SUV at 1 h / tissue uptake dose at 1 h / SUV at 4 h / tissue uptake dose at 5 min / SUV at 5 min / tissue uptake dose: male, Wistar, total radioactivity; for tissue uptake dose at 4 h / SUV at 4 h: 240 min p.i.; for tissue uptake dose at 4 h / SUV at 24 h / tissue uptake dose at 24 h / SUV at 48 h / tissue uptake dose at 48 h / SUV at 1 h / tissue uptake dose at 1 h / SUV at 4 h / tissue uptake dose at 5 min / SUV at 5 min: mean ± SD; for SUV at 24 h / tissue uptake dose at 24 h: 1440 min p.i.; for SUV at 48 h / tissue uptake dose at 48 h: 2880 min p.i.; for SUV at 1 h / tissue uptake dose at 1 h: 60 min p.i.; for tissue uptake dose at 5 min / SUV at 5 min: 5 min p.i.; for tissue uptake dose: whole body, end of observation (Fig. 7c), time not given, mean ± SEM, read-out: remaining activity in the body; for AUC Kidney / AUC Liver: calculated between 1 and 48 h; for t1/2 Blood / t1/2 Kidney / t1/2 Liver: calculated from 24 to 48 h
Description: The present study includes data obtained from a total of 50 animals. Four animals (body weight 227 ± 10 g) for each time point were injected intravenously into a tail vein or subcutaneously with approximately 0.3 MBq ([…]) [^64Cu]Cu-NOTA-HsTX1[R14A] conjugate in 0.5 mL electrolyte solution E-153 (Serumwerk Bernburg, Germany). Animals were euthanised at 5, 60, 240, 1440 and 2880 min post-injection. Blood and the major organs were collected, weighed, and counted in a cross-calibrated γ-counter (Isomed 1000, Isomed GmbH, Dresden) and Wallac WIZARD Automatic Gamma Counter (PerkinElmer, Germany). The radioactivity of the tissue samples was decay-corrected and calibrated by comparing the counts in tissue with the counts in aliquots of the injected radiotracer that had been measured in the γ-counter at the same time. The activity in the selected organs was expressed as percent-injected dose per organ (% ID) and the activity concentration in tissues and organs as standardised uptake value (SUV). Values are quoted as mean ± standard error of mean (SEM) for each group of four animals.

[1] = testes, iv, 0.3 MBq, rat, i.v., n=4, read-out: Testes activity amount
[2] = testes, sc, 0.3 MBq, rat, s.c., n=4, read-out: Testes SUV
[3] = testes, sc, 0.3 MBq, rat, s.c., n=4, read-out: Testes activity amount
[4] = thymus, iv, 0.3 MBq, rat, i.v., n=4, read-out: Thymus activity amount
[5] = thymus, iv, 0.3 MBq, rat, i.v., n=8, read-out: Thymus activity amount
[6] = thymus, iv, rat, i.v., n=4, read-out: Thymus SUV
[7] = thymus, iv, rat, i.v., n=8, read-out: Thymus SUV
[8] = thymus, sc, 0.3 MBq, rat, s.c., n=4, read-out: Thymus activity amount
[9] = thymus, sc, rat, s.c., n=4, read-out: Thymus SUV
[10] = thyroid, iv, 0.3 MBq, rat, i.v., n=4, read-out: Thyroid activity amount
[11] = thyroid, iv, 0.3 MBq, rat, i.v., n=8, read-out: Thyroid activity amount
[12] = thyroid, sc, 0.3 MBq, rat, s.c., n=4, read-out: Thyroid activity amount
[13] = white adipose tissue, iv, 0.3 MBq, rat, i.v., n=4, read-out: WAT (white adipose tissue) SUV
[14] = white adipose tissue, iv, 0.3 MBq, rat, i.v., n=8, read-out: WAT (white adipose tissue) SUV
[15] = white adipose tissue, sc, 0.3 MBq, rat, s.c., n=4, read-out: WAT (white adipose tissue) SUV
[16] = whole blood, iv, 0.3 MBq, rat, i.v., n=4, read-out: Blood SUV

Work on `CSCC[C@@H]1NC(=O)[C@@H]2CSSC[C@H](NC(=O)[C@H](CO)NC(=O)[C@H](C)NC(=O)COCCOCCNC(=O)CN3CCN(CC(=O)O)CCN(CC(=O)O)CC3)C(=O)N[C@@H](CCCNC(=N)N)C(=O)N[C@@H]([C@@H](C)O)C(=O)N3CCC[C@H]3C(=O)N[C@@H](CCCCN)C(=O)N[C@@H](CC(=O)O)C(=O)N[C@H]3CSSC[C@H](NC(=O)[C@H](CCCCN)NC(=O)[C@H](CCCNC(=N)N)NC(=O)[C@H](CC(N)=O)NC1=O)C(=O)N[C@@H](CCCCN)C(=O)N[C@H]1CSSC[C@H](NC(=O)[C@@H]4CCCN4C(=O)[C@H](CC(=O)O)NC(=O)[C@H](C)NC3=O)C(=O)N[C@@H](C)C(=O)N[C@@H](CCCCN)C(=O)N[C@@H](CCC(=O)O)C(=O)N[C@@H]([C@@H](C)O)C(=O)NCC(=O)N[C@@H](CSSC[C@@H](C(N)=O)NC(=O)[C@H](CCCNC(=N)N)NC(=O)[C@H](CC(N)=O)NC1=O)C(=O)N1CCC[C@H]1C(=O)N[C@@H](Cc1ccc(O)cc1)C(=O)NCC(=O)N[C@@H](CCCCN)C(=O)N2` [[^64Cu]Cu-NOTA-HsTX1[R14A], metal not drawn] yielded a tissue uptake dose at 4 h [1] of 0.21 ± 0.01 %ID, an SUV at 24 h (testes, iv, 0.3 MBq, rat, i.v., n=8, read-out: Testes SUV) of 0.87 ± 0.34 SUV and a tissue uptake dose at 24 h (testes, iv, 0.3 MBq, rat, i.v., n=8, read-out: Testes activity amount) of 1.05 ± 0.13 %ID. The SUV at 48 h (testes, iv, 0.3 MBq, rat, i.v., n=4, read-out: Testes SUV) was 0.5 ± 0.02 SUV, the tissue uptake dose at 48 h [1] was 0.76 ± 0.02 %ID and the SUV at 1 h [2] was 0.15 ± 0.01 SUV. For the same molecule, the tissue uptake dose at 1 h [3] was 0.21 ± 0.01 %ID, the SUV at 4 h [2] was 0.12 ± 0.01 SUV and the tissue uptake dose at 4 h [3] was 0.2 ± 0.03 %ID. It also gave an SUV at 24 h [2] of 0.54 ± 0.02 SUV, a tissue uptake dose at 24 h [3] of 0.92 ± 0.06 %ID and an SUV at 48 h [2] of 0.44 ± 0.01 SUV. It also gave a tissue uptake dose at 48 h [3] of 0.63 ± 0.06 %ID, a tissue uptake dose at 5 min [4] of 0.37 ± 0.07 %ID and a tissue uptake dose at 1 h [5] of 0.37 ± 0.08 %ID. The tissue uptake dose at 4 h [4] was 0.37 ± 0.04 %ID, the tissue uptake dose at 24 h [5] was 0.21 ± 0.03 %ID and the tissue uptake dose at 48 h [4] was 0.17 ± 0.02 %ID. The SUV at 5 min [6] was 1.51 ± 0.08 SUV, the SUV at 1 h [7] was 1.33 ± 0.19 SUV and the SUV at 4 h [6] was 1.07 ± 0.02 SUV. It also gave an SUV at 24 h [7] of 0.74 ± 0.15 SUV, an SUV at 48 h [6] of 0.53 ± 0.02 SUV and a tissue uptake dose at 1 h [8] of 0.46 ± 0.01 %ID. The tissue uptake dose at 4 h [8] was 0.43 ± 0.04 %ID, the tissue uptake dose at 24 h [8] was 0.22 ± 0.01 %ID and the tissue uptake dose at 48 h [8] was 0.16 ± 0.02 %ID. It also gave an SUV at 1 h [9] of 1.15 ± 0.03 SUV, an SUV at 4 h [9] of 1.07 ± 0.11 SUV and an SUV at 24 h [9] of 0.63 ± 0.05 SUV. For the same molecule, the SUV at 48 h [9] was 0.46 ± 0.05 SUV, the tissue uptake dose at 5 min [10] was 0.07 %ID and the tissue uptake dose at 1 h [11] was 0.11 ± 0.02 %ID. The tissue uptake dose at 4 h [10] was 0.12 ± 0.01 %ID, the tissue uptake dose at 24 h [11] was 0.08 ± 0.01 %ID and the tissue uptake dose at 48 h [10] was 0.07 ± 0.02 %ID. For the same molecule, the tissue uptake dose at 1 h [12] was 0.13 ± 0.02 %ID, the tissue uptake dose at 4 h [12] was 0.11 ± 0.02 %ID and the tissue uptake dose at 24 h [12] was 0.09 ± 0.05 %ID. It also gave a tissue uptake dose at 48 h [12] of 0.03 ± 0.02 %ID, an SUV at 5 min [13] of 0.28 ± 0.06 SUV and an SUV at 1 h [14] of 0.19 ± 0.07 SUV. The SUV at 4 h [13] was 0.15 SUV, the SUV at 24 h [14] was 0.19 ± 0.09 SUV and the SUV at 48 h [13] was 0.34 ± 0.08 SUV. It also gave an SUV at 1 h [15] of 0.25 ± 0.05 SUV, an SUV at 4 h [15] of 0.17 ± 0.05 SUV and an SUV at 24 h [15] of 0.22 ± 0.01 SUV. It also gave an SUV at 48 h [15] of 0.17 ± 0.08 SUV, an SUV at 4 h [16] of 0.51 ± 0.02 SUV and an SUV at 24 h (whole blood, iv, 0.3 MBq, rat, i.v., n=8, read-out: Blood SUV) of 0.71 ± 0.16 SUV. The SUV at 48 h [16] was 0.38 ± 0.02 SUV, the SUV at 1 h (whole blood, sc, 0.3 MBq, rat, s.c., n=4, read-out: Blood SUV) was 0.65 ± 0.11 SUV and the tissue uptake dose (iv, 0.3 MBq, rat, i.v., 8 animals) was 48 ± 3 %ID. For the same molecule, the tissue uptake dose (sc, 0.3 MBq, rat, s.c., 4 animals) was 45 ± 3 %ID, the brain uptake (rat) was “negligible” and the “AUC Kidney” value (rat, i.v., n=8) was 1417 ± 102 SUV x h. For the same molecule, the “AUC Liver” value (rat, i.v., n=8) was 92,7 ± 11,0 SUV x h, the “t1/2 Blood” value (rat, i.v., n=8) was 49,5 h and the “t1/2 Kidney” value (rat, i.v., n=8) was 14,7 h. The “t1/2 Liver” value (rat, i.v., n=8) was 39,5 h, the “Cmax Kidney” value (rat, i.v., n=8) was 74,8 ± 12,8 SUV and the “Cmax Liver” value (rat, i.v., n=8) was 2,50 ± 0,57 SUV. The “Peak time Blood” value (rat, i.v., n=8) was 1 h, the “Peak time Kidney” value (rat, i.v., n=8) was 1 h and the “Peak time Liver” value (rat, i.v., n=8) was 24 h. For the same molecule, the “AUC Kidney” value (rat, s.c., n=4) was 1285 ± 57 SUV x h, the “AUC Liver” value (rat, s.c., n=4) was 87,8 ± 9,5 SUV x h and the “t1/2 Blood” value (rat, s.c., n=4) was 46,4 h. The “t1/2 Kidney” value (rat, s.c., n=4) was 18,9 h, the “t1/2 Liver” value (rat, s.c., n=4) was 35,9 h and the “Cmax Blood” value (rat, s.c., n=4) was 0,65 ± 0,11 SUV. The “Cmax Kidney” value (rat, s.c., n=4) was 70,2 ± 4,1 SUV, the “Cmax Liver” value (rat, s.c., n=4) was 2,23 ± 0,32 SUV and the “Peak time Blood” value (rat, s.c., n=4) was 1 h. The “Peak time Kidney” value (rat, s.c., n=4) was 4 h, the “Peak time Liver” value (rat, s.c., n=4) was 24 h and the “biological half-life of the total activity in the rat body” value (s.c.) was 42.0 h.
